# Measured values reported in US20240141007A1.
# Target: human FcRn (human) (UniProt P55899)
# Experiment: SPR, hFcRn as ligand
# human FcRn (human), sequence (P55899 24-297 limits assumed, chain 1 of 2): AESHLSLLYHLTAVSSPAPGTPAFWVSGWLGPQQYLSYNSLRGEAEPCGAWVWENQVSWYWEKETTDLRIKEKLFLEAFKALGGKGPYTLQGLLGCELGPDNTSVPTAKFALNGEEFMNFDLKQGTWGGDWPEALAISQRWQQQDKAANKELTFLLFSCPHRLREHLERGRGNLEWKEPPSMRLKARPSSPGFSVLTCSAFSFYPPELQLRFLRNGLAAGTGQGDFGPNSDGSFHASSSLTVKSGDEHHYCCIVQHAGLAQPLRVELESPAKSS
# human FcRn (human), sequence (P61769 21-119 limits assumed, chain 2 of 2, further chain): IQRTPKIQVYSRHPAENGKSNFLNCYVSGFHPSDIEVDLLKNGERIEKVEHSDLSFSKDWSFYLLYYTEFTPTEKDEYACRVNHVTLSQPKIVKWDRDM
substance,measurement,value
Ipilimumab (antibody),Kd,518 nM
